In US20100041597A1 (published 2010):

T1: PKC-ε (endogenous, human cell extracts) (human, UniProt Q02156 1-737)
T1 construct: Two bands on the blot, said to be alternate splicing variants; also called PKC-epsilon; PKC-ε Band 1
T1 sequence (looked up): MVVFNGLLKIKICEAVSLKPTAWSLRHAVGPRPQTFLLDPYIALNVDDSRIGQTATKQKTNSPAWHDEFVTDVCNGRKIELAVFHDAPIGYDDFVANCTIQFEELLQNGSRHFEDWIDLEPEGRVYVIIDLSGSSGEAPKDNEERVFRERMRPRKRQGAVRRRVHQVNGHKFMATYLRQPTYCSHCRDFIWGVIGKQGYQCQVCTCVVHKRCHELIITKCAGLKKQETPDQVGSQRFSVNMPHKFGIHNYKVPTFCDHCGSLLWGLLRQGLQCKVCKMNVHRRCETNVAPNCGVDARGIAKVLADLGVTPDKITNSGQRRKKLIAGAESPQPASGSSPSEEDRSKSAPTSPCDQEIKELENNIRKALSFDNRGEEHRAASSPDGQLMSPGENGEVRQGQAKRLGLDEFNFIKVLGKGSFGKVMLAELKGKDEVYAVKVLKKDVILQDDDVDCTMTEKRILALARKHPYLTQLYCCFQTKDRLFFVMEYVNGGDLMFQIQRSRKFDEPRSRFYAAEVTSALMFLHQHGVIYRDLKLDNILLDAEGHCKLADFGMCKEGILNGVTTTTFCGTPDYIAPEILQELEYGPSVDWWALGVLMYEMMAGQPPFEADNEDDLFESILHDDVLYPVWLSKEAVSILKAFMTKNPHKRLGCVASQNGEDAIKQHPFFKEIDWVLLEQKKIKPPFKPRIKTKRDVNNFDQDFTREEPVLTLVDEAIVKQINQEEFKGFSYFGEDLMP

T2: PKC-ι (endogenous, human cell extracts) (human, UniProt P41743 2-596)
T2 construct: also called PKC-iota
T2 sequence (looked up): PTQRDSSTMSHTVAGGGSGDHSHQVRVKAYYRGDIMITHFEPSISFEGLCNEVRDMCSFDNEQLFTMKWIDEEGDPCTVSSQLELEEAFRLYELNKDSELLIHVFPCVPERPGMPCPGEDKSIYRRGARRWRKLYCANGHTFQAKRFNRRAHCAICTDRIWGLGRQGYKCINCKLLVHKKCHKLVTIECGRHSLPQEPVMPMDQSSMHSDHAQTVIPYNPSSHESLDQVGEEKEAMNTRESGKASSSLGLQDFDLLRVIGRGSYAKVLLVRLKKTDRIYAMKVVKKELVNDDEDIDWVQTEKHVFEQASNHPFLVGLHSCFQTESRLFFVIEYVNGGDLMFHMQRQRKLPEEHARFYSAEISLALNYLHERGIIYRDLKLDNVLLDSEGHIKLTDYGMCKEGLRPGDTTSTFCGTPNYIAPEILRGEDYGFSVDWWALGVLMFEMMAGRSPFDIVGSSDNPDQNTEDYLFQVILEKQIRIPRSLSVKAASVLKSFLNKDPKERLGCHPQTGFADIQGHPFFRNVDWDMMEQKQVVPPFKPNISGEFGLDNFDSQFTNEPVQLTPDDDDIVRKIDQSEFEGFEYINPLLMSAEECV


Tests used:
[1] = biological target: T1, PKC-ε (endogenous, human cell extracts); assay: Protocol B blot competition, IMR-32 extract, competitor anti-PKC-ε Ab, Band 2; PRE 20 µg
Method: (§1) The ability of the peptides PRE 2 and PRE 3 (see Table 3) to interfere with the binding of a PKC-α-specific polyclonal antibody (Santa Cruz Biotechnology, Inc.) to PKC-α was determined using a modified version of the protocol outlined above in which the test peptide was added directly to the cell extract prior to electrophoresis at a concentration of either 5× or 15× the concentration of the protein applied to each well of the gel for the Western blots (20 μg).
(§2) Peptides PRE 2, PRE 3 and PRE 4 (see Table 3) were tested for their ability to interfere with the binding of isoform-specific polyclonal antibodies (Santa Cruz Biotechnology, Inc.) to PKC-ε using the general protocol described in Example 3. Two bands, representing alternate splicing variants of PKC-ε, were identified on the Western blot using this anti-PKC-ε antibody.

[2] = biological target: T1, PKC-ε (endogenous, human cell extracts); assay: Protocol B blot competition, IMR-32 extract, competitor anti-PKC-ε Ab, Band 2; PRE 50 µg
Method: as §1, §2

[3] = biological target: T1, PKC-ε (endogenous, human cell extracts); assay: Protocol B blot competition, IMR-32 extract, competitor anti-PKC-ε Ab, Band 1; PRE 50 µg
Method: as §1, §2

[4] = biological target: T2, PKC-ι (endogenous, human cell extracts); assay: Western-blot competition on cell extracts against the anti-PKC-ι primary antibody; peptide at 10X and 20X the antibody concentration; band densitometry (lower band = peptide bound)
Method: Binding efficiency and specificity of the peptides PRE 2, 3, 4, 5, 6, 7, 8, 9, 10, 11, 12 and 13 (see Table 3) was also tested using cytoplasmic extracts from different cell lines expressing appropriate PKC isoforms as described for Example 1. Briefly, the protein cytoplasmic extracts were separated by electrophoresis and transferred onto nitrocellulose membranes by standard Western blotting procedures. The bands on the Western blots were detected with matching primary antibodies and alkaline phosphatase conjugated secondary antibody. The bands were then scanned and the relative density measurements obtained.
This procedure to assess the binding characteristics of the PREs is based on competition binding of the PRE with the primary anti-isoform PKC specific antibodies. The lower the measured band density, the greater the binding of the PRE to the PKC isoform. The PREs were added at 10 and 20 times (10×, 20×) the primary antibody concentration, according to classical competition between antigenic peptide and primary antibody. The following cell lines (obtained from the ATCC) were used: H661—NCI human lung carcinoma NSCLC; MDAMB231—human highly invasive breast cancer cell line from pleural effusion; LS180—human colon adenocarcinoma; LnCAP—human prostate adenocarcinoma; CCD16Lu—human lung fibroblasts; Du145—human prostate carcinoma brain metastasis, and T24—human bladder carcinoma.

[5] = biological target: T1, PKC-ε (endogenous, human cell extracts); assay: Protocol B blot competition, IMR-32 extract, competitor anti-PKC-ε Ab, Band 2; PRE 100 µg
Method: as §1, §2

[6] = biological target: T1, PKC-ε (endogenous, human cell extracts); assay: Protocol B blot competition, IMR-32 extract, competitor anti-PKC-ε Ab, Band 1; PRE 100 µg
Method: as §1, §2

[7] = biological target: T3, PKC-βI (purified isoform) (Homo sapiens (Human), UniProt P05771 2-671); assay: summary grade, purified isoform ELISA
T3 construct: also called PKC-beta I
T3 sequence (P05771 2-671 limits assumed): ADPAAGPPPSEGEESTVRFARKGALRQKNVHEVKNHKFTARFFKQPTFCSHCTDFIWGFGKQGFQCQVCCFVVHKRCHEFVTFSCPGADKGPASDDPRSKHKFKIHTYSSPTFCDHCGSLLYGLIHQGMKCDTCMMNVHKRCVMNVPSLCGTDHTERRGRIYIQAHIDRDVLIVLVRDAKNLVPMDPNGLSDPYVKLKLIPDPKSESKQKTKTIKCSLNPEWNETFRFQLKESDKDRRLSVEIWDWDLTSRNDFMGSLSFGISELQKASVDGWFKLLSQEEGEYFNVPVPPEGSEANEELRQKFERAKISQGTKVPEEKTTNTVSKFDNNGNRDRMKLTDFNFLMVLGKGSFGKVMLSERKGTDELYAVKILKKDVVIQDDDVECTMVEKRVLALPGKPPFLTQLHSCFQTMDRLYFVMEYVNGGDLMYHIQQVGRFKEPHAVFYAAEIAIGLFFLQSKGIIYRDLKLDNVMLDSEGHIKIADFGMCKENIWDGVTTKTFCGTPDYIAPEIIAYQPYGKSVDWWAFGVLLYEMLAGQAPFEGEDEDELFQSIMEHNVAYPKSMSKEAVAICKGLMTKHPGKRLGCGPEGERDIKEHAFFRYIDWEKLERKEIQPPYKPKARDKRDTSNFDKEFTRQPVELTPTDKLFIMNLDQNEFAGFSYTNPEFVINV

Binder | band intensity [1] | inhibition (%) [1] [%] | relative intensity (%) [1] [%] | band intensity [2] | inhibition (%) [2] [%] | relative intensity (%) [2] [%] | band intensity [3] | inhibition (%) [3] [%] | relative intensity (%) [3] [%] | binding result [4] | band intensity [5] | inhibition (%) [5] [%] | relative intensity (%) [5] [%] | band intensity [6] | inhibition (%) [6] [%] | relative intensity (%) [6] [%] | binding result [7]
Ac-KDAQNLIGISI-NH2 (Synthetic peptide; also called peptide PRE 4) [PRE 4] | 153 | 46.6 | 53.3 | 0 | 100 | 0 | 0 | 100 | 0 | binds | 0 | 100 | 0 | 0 | 100 | 0 | 
Ac-AKGIQEVKGGDAQNLIGISI-NH2 (Synthetic peptide; also called peptide PRE 3) [PRE 3] | 0 | 100 | 0 | 0 | 100 | 0 | 0 | 100 | 0 | binds | 0 | 100 | 0 | 0 | 100 | 0 | 
Ac-KDAQNLI-NH2 (Synthetic peptide; also called peptide PRE 12; Ac-KDAQNLI-NH2) [PRE 12] |  |  |  |  |  |  |  |  |  |  |  |  |  |  |  |  | no binding (tested: 200 µM)
Ac-RDAQNLI-NH2 (Synthetic peptide; also called peptide PRE 13; Ac-RDAQNLI-NH2) [PRE 13] |  |  |  |  |  |  |  |  |  |  |  |  |  |  |  |  | no binding (tested: 200 µM)
